Experimental data published in PMC8745424.

Tests used:
[1] = target: SARS-CoV-2 S-protein RBD (expressed in P. pastoris) (SARS-CoV-2 (Wuhan-type)) (UniProt P0DTC2); assay: BLI; conditions: BLI (BLItz, streptavidin sensors, immobilized aptamer 200 nM; RBD 50-200 nM): PBS, 0.55 mM MgCl2, 0.1 mg/mL BSA, 0.002% Tween-20, room temperature …
[2] = target: SARS-CoV-2 S-protein RBD (expressed in CHO cells) (SARS-CoV-2 (Wuhan-type)) (UniProt P0DTC2); assay: BLI; conditions: BLI (BLItz, streptavidin sensors, […]; RBD 50-200 nM): PBS, 0.55 mM MgCl2, 0.1 mg/mL BSA, 0.002% Tween-20, room temperature; binding-buffer pH not stated

Sequence	Kd [1] [nM]	Kd [2] [nM]
ATCCAGAGTGACGCAGCACTGCGTAGGCGCGGCCAATGTGTAGGATTGCTCAGGTCTGCTGGACACGGTGGCTTAGTTTTTTTTTTT [CoV2-RBD-3-Biotin]	2	24
ATCCAGAGTGACGCAGCAGGACTGCTTAGGATTGCGAAGCTGAGGAGCTCCCCCGCCTTGGACACGGTGGCTTAGTTTTTTTTTTT [CoV2-RBD-5-Biotin]	1.2	26
ATCCAGAGTGACGCAGCAGTAGGGGGATTGGCTCCAGGGCCTGGCTGACGGTTGCACGTGGACACGGTGGCTTAGTTTTTTTTTTT [CoV2-RBD-6-Biotin]	1	10
ATCCAGAGTGACGCAGCATCGAGTGGTGGGCTGGTCGGGTTTGGATTCCCTTAGATGCTGGACACGGTGGCTTAGTTTTTTTTTTT [CoV2-RBD-2-Biotin]	10	4.3
ATCCAGAGTGACGCAGCATTTCATCGGGTCCAAAAGGGGCTGCTCGGGATTGCGGATATGGACACGTTTTTTTTTTT [CoV2-RBD-4-Biotin]	5.5	21
CAGCACCGACCTTGTGCTTTGGGAGTGCTGGTCCAAGGGCGTTAATGGACATTTTTTTTTT [CoV2-RBD-1C-Biotin]	1.5	27
TTTTTTTTTTATCCAGAGTGACGCAGCACTGCGTAGGCGCGGCCAATGTGTAGGATTGCTCAGGTCTGCTGGACACGGTGGCTTAGT [Biotin-CoV2-RBD-3]	1.4	40
TTTTTTTTTTATCCAGAGTGACGCAGCAGGACTGCTTAGGATTGCGAAGCTGAGGAGCTCCCCCGCCTTGGACACGGTGGCTTAGT [Biotin-CoV2-RBD-5]	–	22
TTTTTTTTTTATCCAGAGTGACGCAGCAGTAGGGGGATTGGCTCCAGGGCCTGGCTGACGGTTGCACGTGGACACGGTGGCTTAGT [Biotin-CoV2-RBD-6]	3.5	29
TTTTTTTTTTATCCAGAGTGACGCAGCATCGAGTGGTGGGCTGGTCGGGTTTGGATTCCCTTAGATGCTGGACACGGTGGCTTAGT [Biotin-CoV2-RBD-2]	–	17
TTTTTTTTTTATCCAGAGTGACGCAGCATTTCATCGGGTCCAAAAGGGGCTGCTCGGGATTGCGGATATGGACACGT [Biotin-CoV2-RBD-4]	14	18
TTTTTTTTTTCAGCACCGACCTTGTGCTTTGGGAGTGCTGGTCCAAGGGCGTTAATGGACA [Biotin-CoV2-RBD-1C]	0.8	5.8
